Test results published in the Human Domainome abundance scans (Beltran et al. 2025).
± gives the uncertainty stated by the source.

B1: POU domain, class 3, transcription factor 4, residues 280 to 335; numbered along this chain, P49335 (parent)
chain: KKRTSIEVSVKGVLETHFLKCPKPAAQEISSLADSLQLEKEVVRVWFCNRRQKEKR

Variants of: B1
Assay: abundance fitness (aPCA) (normalised: wild type 0, dead -1); higher = more abundant; growth selection in yeast, the domain comes from the species named
Conditions: Homo sapiens

Variant	abundance fitness
Q37A	-0.437 ± 0.33
Q37V	-0.923 ± 0.29
Q37D	0.043 ± 0.33
Q37H	0.104 ± 0.22
Q37P	-0.855 ± 0.33
Q37F	-0.615 ± 0.38
Q37K	-0.322 ± 0.48
Q37S	-0.081 ± 0.2
Q37G	0.177 ± 0.21
Q37C	-0.198 ± 0.27
Q37N	0.071 ± 0.31
Q37M	-0.22 ± 0.32
Q37L	-0.664 ± 0.29
Q37R	-0.21 ± 0.17
E41S	-0.368 ± 0.13
E41T	-0.466 ± 0.21
E41H	-0.161 ± 0.21
E41K	-0.602 ± 0.21
E41C	-0.84 ± 0.23
E41D	0.043 ± 0.2
E41N	-0.189 ± 0.29
E41G	-0.709 ± 0.14
E41Q	-0.792 ± 0.5
E41P	-0.831 ± 0.25

Variant	abundance fitness
E41R	-0.637 ± 0.14
E41F	-0.841 ± 0.23
E41W	-0.852 ± 0.2
E41I	-0.828 ± 0.31
E41A	-0.776 ± 0.19
E41Y	-0.819 ± 0.4
E41V	-0.817 ± 0.2
E41L	-0.955 ± 0.15
L36E	-0.781 ± 0.39
L36G	-0.703 ± 0.33
V42S	-0.431 ± 0.17
V42L	-0.122 ± 0.13
V42E	0.185 ± 0.2
V42Y	-0.396 ± 0.43
V42D	0.216 ± 0.41
V42F	-0.318 ± 0.26
V42R	-0.689 ± 0.14
V42K	-0.596 ± 0.35
V42I	-0.49 ± 0.32
V42G	-0.648 ± 0.17
V42A	-0.552 ± 0.22
V42N	-0.799 ± 0.41
V42Q	-0.254 ± 0.24
V42T	0.207 ± 0.18

Variant	abundance fitness
V42P	-0.874 ± 0.28
V42M	-0.401 ± 0.2
V42W	-0.291 ± 0.15
K40P	0.348 ± 0.18
K40E	0.192 ± 0.23
K40S	-0.188 ± 0.14
K40Y	0.009 ± 0.2
K40W	-0.539 ± 0.18
K40R	-0.071 ± 0.14
K40M	-0.269 ± 0.15
K40D	-0.287 ± 0.27
K40H	0.099 ± 0.22
K40V	0.097 ± 0.14
K40C	-0.154 ± 0.25
K40I	-0.638 ± 0.27
K40L	-0.418 ± 0.14
K40F	0.195 ± 0.17
K40A	0.026 ± 0.15
K40T	0.181 ± 0.16
K40Q	-0.063 ± 0.19
K40N	-0.248 ± 0.28
K40G	-0.441 ± 0.16
A33D	-0.96 ± 0.31
A33E	-0.634 ± 0.26

Variant	abundance fitness
A33I	-0.802 ± 0.31
A33R	-0.667 ± 0.15
A33Y	-0.917 ± 0.39
A33G	-0.853 ± 0.2
A33T	-0.704 ± 0.25
A33V	-1.02 ± 0.24
A33W	-0.835 ± 0.27
A33M	-0.836 ± 0.38
A33F	-0.773 ± 0.3
A33K	-0.959 ± 0.41
A33L	-0.598 ± 0.13
A33N	-0.964 ± 0.38
A33P	-0.907 ± 0.3
E39T	-0.421 ± 0.26
E39G	-0.686 ± 0.16
E39M	-0.478 ± 0.29
E39N	-0.134 ± 0.25
E39S	-0.074 ± 0.12
E39F	-0.735 ± 0.34
E39K	-0.583 ± 0.34
E39A	-0.515 ± 0.21
E39V	-0.565 ± 0.18
E39R	-0.572 ± 0.12
E39P	-0.022 ± 0.17

Variant	abundance fitness
E39D	0.122 ± 0.17
E39C	-0.411 ± 0.19
E39H	-0.551 ± 0.43
E39Q	-0.522 ± 0.41
E39W	-0.746 ± 0.21
E39I	-0.456 ± 0.25
L32M	-0.425 ± 0.27
L32F	-0.877 ± 0.38
L32H	-0.86 ± 0.35
L32V	-0.625 ± 0.2
L32G	-0.784 ± 0.22
L32I	-0.041 ± 0.48
L32Q	-0.916 ± 0.35
L32W	-0.614 ± 0.28
L32S	-0.732 ± 0.24
L32R	-0.847 ± 0.2
L32N	-0.785 ± 0.32
L32P	-0.176 ± 0.34
L32T	-0.939 ± 0.46
S35E	0.115 ± 0.17
S35L	-0.122 ± 0.11
S35N	-0.45 ± 0.24
S35A	0.071 ± 0.14
S35I	-0.373 ± 0.15

Variant	abundance fitness
S35H	0.345 ± 0.21
S35C	-0.383 ± 0.17
S35D	0.031 ± 0.25
S35G	-0.638 ± 0.15
S35R	0.152 ± 0.11
S35V	-0.456 ± 0.13
S35F	-0.249 ± 0.14
S35M	0.127 ± 0.17
S35K	0.257 ± 0.15
S35T	-0.01 ± 0.13
S35W	-0.707 ± 0.2
S35Y	-0.364 ± 0.17
L38T	-0.607 ± 0.21
L38C	-0.656 ± 0.22
L38I	0.048 ± 0.26
L38Y	-0.483 ± 0.33
L38G	-0.679 ± 0.14
L38V	-0.269 ± 0.15
L38W	-0.884 ± 0.21
L38K	-0.531 ± 0.29
L38Q	-0.89 ± 0.26
L38M	-0.148 ± 0.16
L38A	-0.744 ± 0.23
L38P	-0.932 ± 0.29

Variant	abundance fitness
L38E	-0.729 ± 0.29
L38S	-0.815 ± 0.18
D34Q	-0.183 ± 0.21
D34G	-0.537 ± 0.15
D34P	-0.843 ± 0.29
D34I	-0.717 ± 0.32
D34Y	-0.793 ± 0.31
D34R	0.019 ± 0.12
D34K	0.109 ± 0.22
D34W	-0.801 ± 0.16
D34E	-0.172 ± 0.18
D34L	-0.528 ± 0.13
D34N	-0.384 ± 0.21
D34H	0.069 ± 0.2
D34C	-0.531 ± 0.37
D34M	-0.479 ± 0.21
D34T	-0.472 ± 0.19
D34A	-0.254 ± 0.13
D34S	-0.317 ± 0.13
V43E	-0.815 ± 0.33
V43C	-0.832 ± 0.27
V43A	-0.692 ± 0.19
V43D	-0.614 ± 0.28
